From PMC6486591

What was measured:
[1] = target: YenA2 (Yersinia entomophaga) (UniProt B6A878); test: cryo-EM structure; YenTcA pore form inserted into POPC liposomes (1:2 w/w, 3-5 freeze/thaw cycles), single-particle cryo-EM, 11 Å resolution
[2] = target: YenA2 (Yersinia entomophaga) (UniProt B6A878); test: cryo-EM structure; YenTcA soluble pre-pore form, single-particle cryo-EM, 4.4 Å average resolution, C5 symmetry; 0.1 mg/mL in 25 mM Tris, 150 mM NaCl, pH 7.5, with 10 mM NDSB-195

Sequence of YenA2 (B6A878 whole entry): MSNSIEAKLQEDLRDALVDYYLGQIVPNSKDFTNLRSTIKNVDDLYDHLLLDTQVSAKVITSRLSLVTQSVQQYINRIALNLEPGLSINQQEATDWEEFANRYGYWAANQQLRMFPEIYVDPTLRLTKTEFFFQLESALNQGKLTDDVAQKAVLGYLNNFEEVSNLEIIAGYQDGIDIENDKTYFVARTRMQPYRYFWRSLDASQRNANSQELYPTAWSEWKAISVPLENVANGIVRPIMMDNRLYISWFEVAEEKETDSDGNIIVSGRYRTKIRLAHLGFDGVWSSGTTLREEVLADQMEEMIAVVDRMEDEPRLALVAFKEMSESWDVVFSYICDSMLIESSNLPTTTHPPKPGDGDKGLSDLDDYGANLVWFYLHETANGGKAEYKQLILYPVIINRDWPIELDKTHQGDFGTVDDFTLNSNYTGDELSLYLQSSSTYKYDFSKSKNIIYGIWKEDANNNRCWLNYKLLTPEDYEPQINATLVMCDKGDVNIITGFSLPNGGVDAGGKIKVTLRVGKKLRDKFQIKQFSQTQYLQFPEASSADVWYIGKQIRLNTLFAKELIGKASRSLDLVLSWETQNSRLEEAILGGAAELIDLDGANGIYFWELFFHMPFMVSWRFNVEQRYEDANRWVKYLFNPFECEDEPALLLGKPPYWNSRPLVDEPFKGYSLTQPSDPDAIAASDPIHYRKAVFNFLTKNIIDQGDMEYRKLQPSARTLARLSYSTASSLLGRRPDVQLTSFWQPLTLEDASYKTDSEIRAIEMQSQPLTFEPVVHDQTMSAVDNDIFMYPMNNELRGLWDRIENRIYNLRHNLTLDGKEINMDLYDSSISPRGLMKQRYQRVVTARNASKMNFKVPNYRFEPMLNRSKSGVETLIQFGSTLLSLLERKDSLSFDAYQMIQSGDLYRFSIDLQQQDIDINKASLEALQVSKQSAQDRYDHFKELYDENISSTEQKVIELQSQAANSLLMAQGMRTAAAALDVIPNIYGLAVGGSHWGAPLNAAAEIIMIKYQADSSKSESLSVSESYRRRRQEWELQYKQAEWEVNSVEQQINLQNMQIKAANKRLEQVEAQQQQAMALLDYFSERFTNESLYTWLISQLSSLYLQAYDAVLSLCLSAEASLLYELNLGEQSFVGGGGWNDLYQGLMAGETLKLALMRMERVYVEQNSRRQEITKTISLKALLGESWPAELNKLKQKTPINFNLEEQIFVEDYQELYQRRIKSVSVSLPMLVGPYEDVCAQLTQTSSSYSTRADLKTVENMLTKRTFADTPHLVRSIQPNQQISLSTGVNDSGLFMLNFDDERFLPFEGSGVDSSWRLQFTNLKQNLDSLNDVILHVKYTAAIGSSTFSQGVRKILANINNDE

Substance: YenA2 (from UniProt B6A878 1-1364) (natural protein)
- stoichiometry N [1]: 5
- stoichiometry N [2]: 5
